Assay [1] concerns the target T1, NF-κB-inducing kinase, NIK (MAP3K14), full length (human, UniProt Q99558 1-947).
T1 construct: range 1-947; also called full length NIK; endogenous NIK
The assay is described as follows: yeast two-hybrid, NIK as bait, 41 MDD as prey. An excerpt: (§1) To define the domain of cγc responsible for binding NIK, deletion mutants of cγc have been created and their binding to NIK analysed (FIG. 1). The deletion mutants were created by sequentially introduction of stop codons in the cytoplasmic domain of cγc, in gaps of 10-20 amino acids. The DNA encoding the full-length cγc or its deletion mutants were introduced into the pGADT7 prey vector (Clontech) for testing their binding to NIK in the SFY526 heterologous yeast strain by the two hybrid assay. The SFY526 yeast strain is […] for TRP and Leu. pGBKT plasmids (bait vector) have the Trp1 wild type gene and pGAD has the wild type Leu2 gene. Thus, only doubly transfected yeast will grow on selective Leu Trp media. Functional GAL4 will be restored in doubly transfected yeast when the chimeric proteins fused to GAL4 domains interact, bringing the activation domain and DNA binding domain of GAL4 to close proximity. The level of LAC-Z expression is indicative of the strength of the protein-protein interaction. Lac-Z activity was assessed by the standard beta-gal/colony lift filter assay (Clontech, Yeast Protocol Handbook, Chapter VI).
(§2) The binding of 41 MDD polypeptide to full length NIK or C-terminus NIK was tested in both orientations (i.e. 41 MDD as the pray and NIK as the bait and vice versa). […]

For assay [2], the target named is T2, NIK624-947 (C-terminal domain of NIK) (human, UniProt Q99558 624-947).
T2 construct: GAL4 DNA-BD or AD fusion in the two-hybrid tests; expressed from pcdnNIK (co-IP) or pcS3MTdnNIK (reporter assay) in 293-T cells; also called C-terminus of NIK; NIK C-terminus
T2 sequence (Q99558 624-947 limits assumed): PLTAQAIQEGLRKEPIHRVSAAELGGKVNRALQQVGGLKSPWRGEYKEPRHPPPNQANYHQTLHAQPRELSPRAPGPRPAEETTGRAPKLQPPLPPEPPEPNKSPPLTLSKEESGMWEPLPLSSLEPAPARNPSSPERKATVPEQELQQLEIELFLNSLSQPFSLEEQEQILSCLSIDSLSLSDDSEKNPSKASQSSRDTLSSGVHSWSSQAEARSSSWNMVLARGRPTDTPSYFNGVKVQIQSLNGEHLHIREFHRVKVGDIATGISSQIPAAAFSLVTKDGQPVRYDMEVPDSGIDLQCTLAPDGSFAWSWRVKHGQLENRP
Briefly: yeast two-hybrid, NIK624-947 as bait, 41 MDD as prey.
From the text: as §1, §2

The target in assay [3] is T1, NF-κB-inducing kinase, NIK (MAP3K14), …. The assay is described as follows: yeast two-hybrid.

Consider two molecules from patent US20050272633A1 (YEDA RESEARCH AND DEVELOPMENT, published 2005).

T1 sequence (Q99558 whole entry): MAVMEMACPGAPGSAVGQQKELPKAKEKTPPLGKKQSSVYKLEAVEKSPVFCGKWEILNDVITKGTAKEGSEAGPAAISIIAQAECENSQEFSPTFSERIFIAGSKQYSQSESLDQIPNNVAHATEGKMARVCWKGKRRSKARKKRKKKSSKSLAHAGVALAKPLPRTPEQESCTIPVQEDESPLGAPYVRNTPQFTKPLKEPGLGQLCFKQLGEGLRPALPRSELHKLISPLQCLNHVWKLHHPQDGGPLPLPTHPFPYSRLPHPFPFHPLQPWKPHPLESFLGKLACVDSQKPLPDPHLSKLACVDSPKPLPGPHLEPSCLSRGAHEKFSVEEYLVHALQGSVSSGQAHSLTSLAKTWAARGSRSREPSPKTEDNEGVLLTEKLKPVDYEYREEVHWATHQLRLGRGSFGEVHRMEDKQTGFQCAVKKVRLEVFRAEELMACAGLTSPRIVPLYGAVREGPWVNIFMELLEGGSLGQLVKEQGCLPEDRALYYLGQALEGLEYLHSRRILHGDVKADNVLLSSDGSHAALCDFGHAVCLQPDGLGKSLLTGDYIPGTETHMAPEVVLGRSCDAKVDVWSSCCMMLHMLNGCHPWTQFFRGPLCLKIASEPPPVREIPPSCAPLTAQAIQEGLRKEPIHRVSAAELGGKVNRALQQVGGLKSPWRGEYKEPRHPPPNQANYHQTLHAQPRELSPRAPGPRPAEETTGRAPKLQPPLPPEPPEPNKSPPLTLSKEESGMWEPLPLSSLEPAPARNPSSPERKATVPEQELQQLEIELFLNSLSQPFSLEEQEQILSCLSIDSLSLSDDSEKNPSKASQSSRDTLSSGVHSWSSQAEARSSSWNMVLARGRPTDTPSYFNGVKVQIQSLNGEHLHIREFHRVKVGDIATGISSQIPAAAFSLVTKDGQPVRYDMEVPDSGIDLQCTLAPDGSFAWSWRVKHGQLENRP

B1: cγc 329-369 (41 MDD polypeptide) (peptide)
chain: LCLVSEIPPKGGALGEGPGASPCNQHSPYWAPPCYTLKPET
notes: GAL4 fusion (bait or prey) in two-hybrid; also called 41 amino acid polypeptide from the membrane distal domain of cγc
B1: the binding result in assay [1] and in assay [2] was “binds” throughout.

B2: 44MPD (cγc membrane proximal domain, residues 282-325) (peptide)
chain: WLERTMPRIPTLKNLEDLVTEYHGNFSAWSGVSKGLAESLQPDY
notes: Two-hybrid constructs comprising intracellular fragments close to the membrane proximal domain
Turning to B2, in assay [3], the binding result is listed as “binds”.
